According to patent US20240116987A1, “POLYPEPTIDE INHIBITORS OF LACTATE DEHYDROGENASE ACTIVITY FOR USE IN CANCER THERAPY” (UNIVERSITÉ CATHOLIQUE DE LOUVAIN, priority 2021, published 2024):

Assays:
[1] = Chemical denaturation with guanidinium-HCl followed by intrinsic fluorescence; assay type: physicochemical, human; settings: protein 1.3 μM, means ± SEM, n=6
Description: (§1) All spectrophotometric experiments were performed with opaque 96-well plates using a Spectramax m2e spectrophotometer (Molecular Devices) following previously described in Thabault et al. (see above).
(§2) Intrinsic fluorescence assays: full tryptophan fluorescence spectra were recorded using an excitation wavelength of 286 nm and recording the emission spectra from 320 to 400 nm at room temperature. The raw fluorescence of each experiment was subtracted to a corresponding control experiment without the protein. Experiments were performed in a 50 mM sodium phosphate and 100 mM NaCl, pH 7.6, buffer. For dissociation in subunits, increasing amounts of guanidinium-HCl ranging from 0.3 M to 2 M were put in contact with the studied proteins (1.3 μM), and fluorescence spectra were recorded afterwards.

[2] = NanoDSF thermal denaturation of LDH-H variants; assay type: physicochemical, human; settings: for Ratio 350/330 nm (initial): nanoDSF fluorescence ratio; for Tm: means ± SEM, n=6
Description: NanoDSF was performed following previously described by Thabault et al. (see above). • a) Variant evaluation
Solutions of proteins (LDH-H, LDH-Htr, or variants), stored in a 50 mM sodium phosphate, 100 mM NaCl and 20% glycerol, pH 7.6, were evaluated on a Tycho NT.6 device (NanoTemper Technologies®) using concentrations […]. According to standard manufacturer's procedures, samples were poured into capillaries and heated up to 95° C. in 3 min, while following fluorescence emission at 330 and 350 nm. Melting temperatures were extracted from the derivative of the 350/330 nm fluorescence ratios upon increasing temperature. • b) Peptide evaluation

[3] = Intrinsic tryptophan fluorescence spectra; assay type: physicochemical, human; settings: 1.3 μM, λexc 286 nm, n=6
Description: as §1, §2

LDH-Htr = molecular target: T1, LDH-Htr (Homo sapiens, UniProt P07195); assay: Microscale thermophoresis (MST) binding to labelled LDH-Htr; settings: 1.5 s MST on time, n=3, labelled LDH-Htr 100 nM
T1 construct: using the model of dimeric LDH (LDH-Htr); made in house; host or cells: E. coli Rosetta (DE3)
Description: MST measurements were performed on a Nanotemper® Monolith NT.115 instrument (NanoTemper Technologies®) using Red-dye-NHS fluorescent labelling. LDH-Htr purified to homogeneity was labelled with the Monolith Red-dye-NHS 2nd generation labelling dye (Nanotemper Technologies®), according to the supplied protocol. Measurements were performed in 50 mM sodium phosphate, pH 7.6, and 100 mM NaCl containing 0.01% Tween-20 in standard-treated capillaries (NanoTemper Technologies®). The final concentration of proteins in the assay was 100 nM. Ligands were titrated in 1:1 dilutions following manufacturer's recommendations. Experiments were performed in triplicates using 40% LED power, high MST power, […] and Laser off time 3 s. Poypeptides were evaluated for their thermophoretic pattern, and Kd's were extracted from raw data at a 1.5 s MST on time following the manufacturer's instructions.

dimeric LDH-Htr [4] = molecular target: T2, dimeric LDH-Htr (Homo sapiens, UniProt P07195); assay: NanoDSF thermal shift of dimeric LDH-Htr with peptide; assay type: binding; settings: LDH-Htr 15 μM, polypeptide 500 μM, n=3
T2 construct: using the model of dimeric LDH (LDH-Htr); made in house; host or cells: E. coli Rosetta (DE3)
Description: (§3) NanoDSF was performed following previously described by Thabault et al. (see above). • a) Variant evaluation Solutions of proteins (LDH-1, LDH-5 or LDH-Htr) with peptides were evaluated on a Tycho NT.6 device (NanoTemper Technologies®). Evaluations were performed in a 50 mM sodium phosphate and 100 mM NaCl pH 7.6 buffer. According to standard manufacturer's procedures, samples were poured into capillaries and treated as above.

tetrameric LDH-5 = tetrameric LDH-5 (Homo sapiens, UniProt P00338); assay: NanoDSF thermal destabilization of tetrameric LDH-5 by peptide; assay type: binding
Description: as §3

dimeric LDH-Htr [5] = molecular target: T2, dimeric LDH-Htr; assay: NMR WaterLOGSY with dimeric LDH-Htr; assay type: binding; settings: LDH-Htr 15 μM, LP-22 400 μM
Description: Human LDH-H (full length and truncated)-6His proteins for ^1D NMR were expressed and purified from E. coli, as described above. All experiments were performed on an […] system equipped with a broadband cryoprobe (Bruker®) following a previously described in Thabault et al. (see above).
For WaterLOGSY NMR studies, samples were prepared in 10% D2O containing 50 mM sodium phosphate buffer, pH 7.6, and 100 mM NaCl. The concentration of LDHs was ranging from 15 to 20 μM of monomer. Ligand binding was detected using a WaterLOGSY ephogsygpno.2 avance-version sequence with a 1 s mixing time. Water signal suppression was achieved using an excitation-sculpting scheme, and a 50 ms spinlock was used to suppress protein background signals.

T2 sequence (P07195 21-334): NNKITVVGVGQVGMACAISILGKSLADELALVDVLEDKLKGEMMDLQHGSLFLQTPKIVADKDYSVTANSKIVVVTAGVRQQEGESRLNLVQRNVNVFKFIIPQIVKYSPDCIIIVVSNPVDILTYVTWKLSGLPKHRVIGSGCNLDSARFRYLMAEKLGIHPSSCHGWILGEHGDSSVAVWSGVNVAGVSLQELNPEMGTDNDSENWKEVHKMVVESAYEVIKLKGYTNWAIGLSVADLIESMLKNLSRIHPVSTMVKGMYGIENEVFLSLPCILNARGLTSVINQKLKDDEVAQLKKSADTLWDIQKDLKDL
T1 sequence (P07195 21-334): as above

Row | Molecule | EC50 [1] | Kd (LDH-Htr) | ΔTm of dimeric LDH-Htr (stabilization) (dimeric LDH-Htr [4]) | Destabilizing effect on LDH-5 compared to LDH-1 (tetrameric LDH-5; nanoDSF, tetrameric LDH-5 vs LDH-1) | WaterLOGSY saturation transfer with dimeric LDH-Htr (dimeric LDH-Htr [5]) | EC50 (tetrameric LDH-5; LDH-5 300 nM, n=3, read-out: EC50 of ΔTm (destabilization) of tetrameric LDH-5) | NanoDSF denaturation pattern [2] | Ratio 350/330 nm (initial) [2] | Tm ([2]; nanoDSF) | Tryptophan fluorescence intensity compared with LDH-1 [3] | Tm difference versus LDH-Htr ([2]; nanoDSF)
1 | LDH-Htr: dimeric model of LDH-H obtained by truncating its N-terminal tetramerization domain [reference compound] | < 100000 µM | – | – | – | – | – | concentration-dependent destabilization | 0.87 | 57.5 ± 0.1 °C | – | –
2 | L71A: LDH-H recombinant alanine variant L71A of SEQ ID NO: 2 | < 100000 µM | – | – | – | – | – | a lower initial ratio and a red-shift | 0.90 | 67.1 ± 0.1 °C | not L71A | 10 °C
3 | CSCC[C@H](NC(=O)[C@H](CCC(=O)O)NC(=O)CNC(=O)[C@H](CCCCN)NC(=O)[C@H](CC(C)C)NC(=O)[C@H](CCCCN)NC(=O)[C@H](CC(=O)O)NC(=O)[C@H](CCC(=O)O)NC(=O)[C@@H](N)CC(C)C)C(=O)N[C@@H](CCSC)C(=O)N[C@@H](CC(=O)O)C(=O)N[C@@H](CC(C)C)C(=O)N[C@@H](CCC(N)=O)C(=O)N[C@@H](Cc1c[nH]cn1)C(=O)NCC(=O)N[C@@H](CO)C(=O)N[C@@H](CC(C)C)C(=O)N[C@@H](Cc1ccccc1)C(=O)N[C@@H](CC(C)C)C(=O)N[C@@H](CCC(N)=O)C(=O)N[C@H](C(=O)N1CCC[C@H]1C(N)=O)[C@@H](C)O [LP-22] | – | 156 µM | 2.8 °C | higher destabilizing effect | undergoes a saturation transfer | – | – | – | – | – | –
4 | F72A: LDH-H recombinant alanine variant F72A of SEQ ID NO: 2 | < 100000 µM | – | – | – | – | – | denaturation patterns comparable to dimeric LDH-Htr | 0.94 | 53.9 ± 0.1 °C | decays in fluorescence intensity characteristic of the dimeric forms of LDHs | –

The next lines start with results.

Row | EC50 [1] | Kd (LDH-Htr) | ΔTm of dimeric LDH-Htr (stabilization) (dimeric LDH-Htr [4]) | Destabilizing effect on LDH-5 compared to LDH-1 (tetrameric LDH-5; nanoDSF, tetrameric LDH-5 vs LDH-1) | WaterLOGSY saturation transfer with dimeric LDH-Htr (dimeric LDH-Htr [5]) | EC50 (tetrameric LDH-5; LDH-5 300 nM, n=3, read-out: EC50 of ΔTm (destabilization) of tetrameric LDH-5) | Molecule | NanoDSF denaturation pattern [2] | Ratio 350/330 nm (initial) [2] | Tm ([2]; nanoDSF) | Tryptophan fluorescence intensity compared with LDH-1 [3] | Tm difference versus LDH-Htr ([2]; nanoDSF)
5 | < 100000 µM | – | – | – | – | – | E62A: LDH-H recombinant alanine variant E62A of SEQ ID NO: 2 | denaturation patterns comparable to dimeric LDH-Htr | 0.95 | 58.9 ± 0.1 °C | decays in fluorescence intensity characteristic of the dimeric forms of LDHs | –
6 | – | 240 µM | – | – | – | 262 µM | Ac-GEMMDLQHGSLFLQTP-NH2 [GP-16] | – | – | – | – | –
